Assay results published in the Immune Epitope Database (IEDB).

Experiments:
[1] = target: HLA-B*45:01; assay: IEDB peptide-MHC binding, purified MHC/competitive/radioactivity; filed as Kd, often an IC50 or EC50 that approximates it; ≥ and ≤ were set here for values at or beyond the usual limits of such assays
[2] = target: HLA-B*40:01; assay: as above
[3] = target: HLA-B*40:02; assay: as above
[4] = target: HLA-B*18:01; assay: as above
[5] = target: HLA-B*44:02; assay: as above
[6] = target: HLA-B*44:03; assay: as above
[7] = target: HLA-B*15:01; assay: IEDB peptide-MHC binding, purified MHC/competitive/fluorescence; filed as Kd, often an IC50 or EC50 that approximates it; ≥ and ≤ were set here for values at or beyond the usual limits of such assays; details: source organism: Yersinia pestis Nepal516
[8] = target: HLA-B*35:01; assay: as above
[9] = target: HLA-A*01:01; assay: as above
[10] = target: HLA-A*03:01; assay: as above; details: source organism: Yersinia pestis Nepal516
[11] = target: HLA-B*15:01; assay: IEDB peptide-MHC binding, purified MHC/direct/fluorescence; filed as Kd, often an IC50 or EC50 that approximates it; ≥ and ≤ were set here for values at or beyond the usual limits of such assays; details: source organism: Influenza A virus (A/mallard/NZ/1/97(H5N2))
[12] = target: HLA-A*69:01; assay: as above; details: source organism: Influenza A virus (A/mallard/NZ/1/97(H5N2))
[13] = target: HLA-B*46:01; assay: as above; details: source organism: Influenza A virus (A/mallard/NZ/1/97(H5N2))
[14] = target: HLA-A*26:01; assay: as above; details: source organism: Influenza A virus(A/swine/Shandong/fZC/2003(H9N2))
[15] = target: HLA-B*15:09; assay: as above; details: source organism: Influenza A virus(A/swine/Shandong/fZC/2003(H9N2))
[16] = target: HLA-A*02:01; assay: as above; details: source organism: Influenza A virus (A/mallard/NZ/1/97(H5N2))
[17] = target: HLA-B*40:01; assay: as above; details: source organism: Influenza A virus (A/mallard/NZ/1/97(H5N2))
[18] = target: HLA-B*58:01; assay: as above; details: source organism: Influenza A virus (A/mallard/NZ/1/97(H5N2))
[19] = target: HLA-A*11:01; assay: as above; details: source organism: Influenza A virus (A/mallard/NZ/1/97(H5N2))
[20] = target: HLA-B*07:02; assay: as above; details: source organism: Influenza A virus (A/mallard/NZ/1/97(H5N2))
[21] = target: HLA-A*31:01; assay: as above; details: source organism: Influenza A virus (A/mallard/NZ/1/97(H5N2))
[22] = target: HLA-B*44:02; assay: as above; details: source organism: Influenza A virus (A/mallard/NZ/1/97(H5N2))
[23] = target: HLA-B*08:02; assay: as above; details: source organism: Influenza A virus(A/swine/Shandong/fZC/2003(H9N2))
[24] = target: HLA-A*01:01; assay: as above; details: source organism: Influenza A virus (A/mallard/NZ/1/97(H5N2))
[25] = target: HLA-B*27:05; assay: as above; details: source organism: Influenza A virus (A/mallard/NZ/1/97(H5N2))
[26] = target: HLA-A*24:02; assay: as above; details: source organism: Influenza A virus (A/mallard/NZ/1/97(H5N2))
[27] = target: HLA-A*03:01; assay: as above; details: source organism: Influenza A virus (A/mallard/NZ/1/97(H5N2))
[28] = target: HLA-B*08:01; assay: as above; details: source organism: Influenza A virus (A/mallard/NZ/1/97(H5N2))
[29] = target: HLA-B*15:01; assay: IEDB peptide-MHC binding, purified MHC/competitive/fluorescence; ≥ and ≤ were set here for values at or beyond the usual limits of such assays; details: source organism: Zaire ebolavirus
[30] = target: HLA-A*02:01; assay: as above; details: source organism: Zaire ebolavirus
[31] = source organism: SARS coronavirus Tor2
[32] = source organism: Yersinia pestis Nepal516
[33] = source organism: Mammarenavirus juninense
[34] = source organism: Lymphocytic choriomeningitis virus (strain Armstrong)
[35] = source organism: Bacillus anthracis str. A2012

Q: How did the Kd [1, 31] turn out when AEAAVKPLLA was run?
A: 0.0106 µM

Q: And the Kd [2, 31]?
A: 0.164 µM

Q: What about the Kd [3, 31] of the same sequence?
A: ≥ 20.1 µM

Q: And the Kd [4, 31]?
A: ≥ 55.5 µM

Q: And the Kd [5, 31]?
A: 0.105 µM

Q: And the Kd [6, 31]?
A: 0.0356 µM

Q: Which Kd [1, 31] does the source give for AEWVLAYML here?
A: 0.0365 µM

Q: What about the Kd [2, 31] of the same sequence?
A: 0.00475 µM

Q: What about the Kd [3, 31] of the same sequence?
A: 0.00402 µM

Q: And the Kd [4, 31]?
A: 0.418 µM

Q: What about the Kd [5, 31] of the same sequence?
A: 0.0139 µM

Q: What about the Kd [6, 31] of the same sequence?
A: 0.00504 µM

Q: What does the source list for AEYKLQQGTF?
A: Kd [1, 31]: 0.0623 µM; Kd [2, 31]: 4.58 µM; Kd [3, 31]: 0.02 µM; Kd [4, 31]: 7.04 µM; Kd [5, 31]: 0.0288 µM; Kd [6, 31]: 0.0896 µM

Q: With CLLSHTLAY as the sequence, how does the Kd [7] read?
A: 0.225 µM

Q: What about the Kd [8, 32] of the same sequence?
A: 0.0246 µM

Q: What about the Kd [9, 32] of the same sequence?
A: 1.06 µM

Q: And the Kd [10]?
A: 0.0643 µM

Q: What does the source list for EELSMMYESL?
A: Kd [1, 33]: 1.9 µM; Kd [2, 33]: 0.899 µM; Kd [3, 33]: 0.106 µM; Kd [4, 33]: 1.34 µM; Kd [5, 33]: 1.48 µM; Kd [6, 33]: 1.85 µM

Q: For HSNASTLLY, which Kd ([9]; source organism: Staphylococcus aureus subsp. aureus N315) is on record?
A: 0.0025 µM

Q: IAGFIEGGW was tested. Which Kd [11] did it give?
A: ≥ 20 µM

Q: What about the Kd [12] of the same sequence?
A: ≥ 20 µM

Q: And the Kd [13]?
A: ≥ 20 µM

Q: And the Kd [14]?
A: ≥ 20 µM

Q: What about the Kd [15] of the same sequence?
A: ≥ 20 µM

Q: What about the Kd [16] of the same sequence?
A: ≥ 20 µM

Q: What about the Kd [17] of the same sequence?
A: ≥ 20 µM

Q: What about the Kd [18] of the same sequence?
A: 0.0654 µM

Q: What about the Kd [19] of the same sequence?
A: ≥ 20 µM

Q: What about the Kd [20] of the same sequence?
A: ≥ 20 µM

Q: What about the Kd [21] of the same sequence?
A: ≥ 20 µM

Q: What about the Kd [22] of the same sequence?
A: ≥ 20 µM

Q: And the Kd [23]?
A: ≥ 20 µM

Q: What about the Kd [24] of the same sequence?
A: ≥ 20 µM

Q: What about the Kd [25] of the same sequence?
A: ≥ 20 µM

Q: And the Kd [26]?
A: ≥ 20 µM

Q: What about the Kd [27] of the same sequence?
A: ≥ 20 µM

Q: And the Kd [28]?
A: ≥ 20 µM

Q: Which results are given for IEVALRTLL?
A: Kd [1, 34]: 18.3 µM; Kd [2, 34]: 0.0644 µM; Kd [3, 34]: 0.0549 µM; Kd [4, 34]: 0.0772 µM; Kd [5, 34]: 14.6 µM; Kd [6, 34]: 3.73 µM

Q: For ITTFFTFAY, which Kd [8, 35] is on record?
A: 0.192 µM

Q: And the Kd [9, 35]?
A: 0.14 µM

Q: What does the source list for KDTPGGYCL?
A: Kd [1, 33]: 18.3 µM; Kd [2, 33]: 11.9 µM; Kd [3, 33]: 3.48 µM; Kd [4, 33]: ≥ 61 µM; Kd [5, 33]: ≥ 77.9 µM; Kd [6, 33]: ≥ 78.1 µM

Q: Which IC50 [29] does the source give for KLTEAITAA here?
A: ≥ 171 µM

Q: What about the IC50 [30] of the same sequence?
A: 2.05 µM

Q: With LESLWAPFGV as the sequence, how does the Kd [1, 33] read?
A: 16.1 µM

Q: What about the Kd [2, 33] of the same sequence?
A: ≥ 24.6 µM

Q: What about the Kd [3, 33] of the same sequence?
A: 0.159 µM

Q: And the Kd [4, 33]?
A: 0.607 µM

Q: And the Kd [5, 33]?
A: ≥ 31.8 µM

Q: And the Kd [6, 33]?
A: ≥ 56.4 µM
